# Assay results: the DeepSol protein solubility set
# Assay: soluble on expression in E. coli; label from the status in PepcDB or PDB records
row,Sequence,soluble on expression in E. coli
1,ISISRADLAFDLFEVDCSEFVLEKKGRPTATKEFRSSTGTLETKYLGAPRSEKQVRLYNKKKEQLQNGTDKDKDFASQFKHWWRLEFQLRSRSIDEIFEVIDTIIFKPFNLKGLSIETQIYLTALIHDKNIWKKLHRNTRARYKKILETHQTSDTDYLGLLKDLLKHERPRLENQLAYYGGRIDKNSFQPFC,not soluble
2,MGSDKIHHHHHHMMNVLRDGCSERGTARVGKHHDLKTVRWYVLTLPTTGVARRDKISPAKSLDAELSRRKRRGETLFEYFAPSYVEVRKVDGKMVNTKRPLLFNYVFIRSSVEEIFQMKRTLPLYNFLPRVSSGGMTHFPYLSDSEMGNLRWVAESYSNELPVYVPDSNRLLKGDRVRITSGYFTGMEAEVVIQPGGGHKDVMARILDCMWVPLLEVKPGEYELIELNTKGKHAYTHLDNDRLREGLHDALGRYHTSGSVAEEDTRLACEVLRSYGSLRAETDVMRCKIYSLLLSAYKLLGDEEEFTRLHDTMRGMLPVVKAPQSRALLLVTLYGCTDSALYRQMAHEVVDPWRGESSPKKSKLSLIRRLDDCDRWLRHNE,not soluble
3,MTVQQKIASGRSSGRTVSQERLNQLSEQTRRAIAQLEPVTLDWVAPVATDMDVAVIGGGQSGVAIAFGLRRAGIRRVQVFDAATPETAGVWNTIARMHTLRAGKGFTGLEQGIPELTFEHWYVALHGDAAFAAMAEIPRTVWLDYLNWYRETAGIDVRWQHRLISIDPRSDAENAPLNLRFELQDKGVIDLSTQTIVLATGLDGLGEPYIPSVLSHTLPPDRLVHTNDLINFSSLRGLSVGVVGAAASAFDAAAVALEHGAASVHQFVRHGDLVEANDQAAARPSADKLFFPEFDDAMRWRLILERRRRSSAPDAAIARACQHPNHYLHFNVAAEQIVALGDDIVARTTTGDIMLDTVIAATGYRQNVYARPELTAAAPHILLWQDRVAAAEGESGWSSHPYLGKGFELQEIEPGSAPWLKRIHVYTFAAIISHGIHAGDIGSAAIALPRLIAAVARSLFIHARADYERLASLGPSIAVDRVAPSPVSGPWEAAPLEHHHHHH,soluble
4,MTSRDQGINSELSNRTIQFKEKIHNGIHTEYITDQKHSNNKDREKKYRDGDKINGPQAHSLDITNERRFADNRTMFTQHIEKQRNVNTLNQNDINNSANNANVRENELTYQFQRWGQNHTVRILESSEGIRLKPSDTLVSDRLHEAQHNDVTAQRWVLTEQDERQGQRHQPHEEQENEGKFENDQKDES,soluble
5,MSSQQQESEASGYNTSASSEFGSLEDSHQFVSPVTRHASKRRAVENVDHLDELMKSSMVLSPEKRLRLNTSNDSNLVRNTARSPDSSMNGRPQTRRSTSSDIEISPRVRAMRSTSGSSMDLVRTVSSFCTDSISPKFFTNHGSTTRKRTENGSIYSRHRLGATFSPLVAGAKRKMATPSQSLKRQEKQSPLESRHGGLRSRGTPQRKLLLCDRLKVLN,not soluble
6,MGSSHHHHHHSSGLVPRGSHMSISRFGVNTENEDHLAKELEDLNKWGLNIFNVAGYSHNRPLTCIMYAIFQERDLLKTFRISSDTFITYMMTLEDHYHSDVAYHNSLHAADVAQSTHVLLSTPALDAVFTDLEILAAIFAAAIHDVDHPGVSNQFLINTNSELALMYNDESVLENHHLAVGFKLLQEEHCDIFMNLTKKQRQTLRKMVIDMVLATDMSKHMSLLADLKTMVETKKVTSSGVLLLDNYTDRIQVLRNMVHCADLSNPTKSLELYRQWTDRIMEEFFQQGDKERERGMEISPMCDKHTASVEKSQVGFIDYIVHPLWETWADLVQPDAQDILDTLEDNRNWYQSMIPQSPSPPLDEQNRDCQGLMEKFQFELTLDEEDSEGPEKEGEGHS,soluble
7,MSLAKLDETLTMLKDLTDAKGIPGNEREVRQVMKSYIEPFADEVTTDRLGSLIAKKTGAENGPKIMIAGHLDEVGFMVTQITDKGFIRFQTVGGWWAQVMLAQRVTIVTKKGEITGVIGSKPPHILSPEARKKSVEIKDMFIDIGASSREEALEWGVLPGDMIVPHFEFTVMNNEKFLLAKAWDNRIGCAIAIDVLRNLQNTDHPNIVYGVGTVQEEVGLRGAKTAAHTIQPDIAFGVDVGIAGDTPGISEKEAQSKMGKGPQIIVYDASMVSHKGLRDAVVATAEEAGIPYQFDAIAGGGTDSGAIHLTANGVPALSITIATRYIHTHAAMLHRDDYENAVKLITEVIKKLDRKTVDEITYQEGGSHHHHHH,soluble
8,MAHHHHHHMDAPEWTKDAQSIQGAKDYVRQASIVDFYEMICRNIFTHHPANLTEFCLRIVKDIMNGTEITSAADFQPKRIDDNKYMRDMAMCSFLDGWILELLRERPGTHLERMEFHKRYLEGLQSESDTGK,soluble
9,MVAQARRQGCGERLTTATAVATPATAEQGETTMETVEEFLAHSIKLEQEAALRFGQLADAMDSCGNKEVSKLFRQLADYSRMHQADAQARAGFRDIPQMEPGDFKWPGLESPEAAAIWGTDPFIGRDLALQIALEAETGAFDWYKNVLDTTDNPEIKMLAKEFVEEESGHVAELHRWIALHKAGKPLPMEIVPF,not soluble
10,MRKPTYHQINPLIRLKETELLSEQQFQQLLEAETVEDVRNMLKSTVYQPYLTETFEEKFDYHSSEALGSLYRWLYEMAPEPAVVTLYTMRFTFHNLKILTKAERTGKDFDYLYLEDGRYSLNTVKSAIHTKNSSELEPALLEVIRDVFAYLEEGGLPQAIDILYDRAFLQQQRKLADELGYEELTKEVIAFIDLTNLSTMARGIVQHQNSNFLSTVLSSAGSITKKELLTYAEKSLVEFTAFVRTTNYGQLLEKIINKETNELNLLAFEKLKDDYLTSMYENGRTVAFGPLPLLAFLNAKEVEWKNLRLILVGKHSGFSNEKIRERMRKVNGV,not soluble
11,QYAPQTQSGRTSIVHLFEWRWVDIALECERYLGPKGFGGVQVSPPNENIVVTNPSRPWWERYQPVSYKLCTRSGNENEFRDMVTRCNNVGVRIYVDAVINHMCGSGAAAGTGTTCGSYCNPGSREFPAVPYSAWDFNDGKCKTASGGIESYNDPYQVRDCQLVGLLDLALEKDYVRSMIADYLNKLIDIGVAGFRIDASKHMWPGDIKAVLDKLHNLNTNWFPAGSRPFIFQEVIDLGGEAIKSSEYFGNGRVTEFKYGAKLGTVVRKWSGEKMSYLKNWGEGWGFMPSDRALVFVDNHDNQRGHGAGGSSILTFWDARLYKIAVGFMLAHPYGFTRVMSSYRWARNFVNGEDVNDWIGPPNNNGVIKEVTINADTTCGNDWVCEHRWREIRNMVWFRNVVDGQPFANWWDNGSNQVAFGRGNRGFIVFNNDDWQLSSTLQTGLPGGTYCDVISGDKVGNSCTGIKVYVSSDGTAQFSISNSAEDPFIAIHAESKL,soluble
12,AVMHYTSDTEFCVSCHSMEIPYKEYQGSVHFSNAKGIRAECSDCHIPQEPMDYLITKIRASKDIYHEFVTGKIDTPEKYEAHRKDMAETVWAQFRENDSATCRSCHDFDAMEEFEQSRDAAKMHEYAKANDQTCIDCHKGVAHFAPEAELDSKAFETLMSFTTKTAANAKVVYPVTTINMGEMGTINPTTKLEVMSAEGDNRTVKLNAFQMKGAEQVLYMGEGQRAIVATLTEQGQQALEAGEFEADVYGNEWRAVSLTGAIDSPVVDTLDPVWSYAEELDNVYCATCHAKIPSNHFTV,not soluble
13,MSLGSTQLQLHGLLSNISSKEGTYAKLGGLYTQSLARLVAKCEDLFMGGQKKELHFNENNWSLFKLTCNKPCCDSGDAIYYCATCSEDPGSTYAVKICKAPEPKTVSYCSPSVPVHFNIQQDCGHFVASVPSSMLSSPDAPKDPVPALPTHPPAQEQDCVVVITREVPHQTASDFVRDSAASHQAEPEAYERRVCFLLLQLCNGLEHLKEHGIIHRDLCLENLLLVHCTLQAGPREKQLPRLIISNFLKAKQKPGGTPNLQQKKSQARLAPEIVSASQYRKFDEFQTGILIYELLHQPNPFEVRAQLRERDYRQEDLPPLPALSLYSPGLQQLAHLLLEADPIKRIRIGEAKRVLQCLLWGPRRELVQQPGTSEEALCGTLHNWIDMKRALMMMKFAEKAVDRRRGVELEDWLCCQYLASAEPGALLQSLKLLQEGHHHHHH,soluble
14,MSTASVLDDIDYDSSFEMVEEEKFEKIENTDNSENFQYVSTKGNTVKEVNINSNEKKKKEAPIQILTAMIGKWKLASSENLQEYFTLEKFPEITQMAWEHGITCYKMNGNQLHVHTDLLGKSLIPTIFEFDKPIARDDNAVSTHAEGNMMSTICKRIADGSIVWKVERLIKNGNLVVFNSRGNFRCKRVYKRVN,not soluble
15,MGSDKIHHHHHHMEIRPEMFGQARAGAAWPDFGKPHVLRCDTGRSALKLALQCWAGRAGRDFTVWLPHYVCHSVAQAVRQAGHALAYYGHRPSEQIFSPPPTPQAGDLVLLVHYFGLRNRAALDWLSAHATRDFAVLEDCVQSPYTAGVGRLADFAISSLRKWWPTPDGATLASVYALDGLDLAASDEAFISQRMAAKQLRARGIGEERYLQWIDESESRLDDVVPRQASWLAASLLGEADIDVAMAARRENWFALAQGLAGLRGVAPLFRELAVDEIPLAYPVVVSATNRQKLRAALRDRRVFCPVHWDLESDAPEADTLLSARILSIPLDQRYAPADMRKVASMIGEFIAEELN,not soluble
16,MELWGRMLWALLSGPGRRGSTRGWAFSSWQPQPPLAGLSSAIELVSHWTGVFEKRGIPEARESSEYIVAHVLGAKTFQSLRPALWTQPLTSQQLQCIRELSSRRLQRMPVQYILGEWDFQGLSLRMVPPVFIPRPETEELVEWVLEEVAQRSHAVGSPGSPLILEVGCGSGAISLSLLSQLPQSRVIAVDKREAAISLTHENAQRLRLQDRIWIIHLDMTSERSWTHLPWGPMDLIVSNPPYVFHQDMEQLAPEIRSYEDPAALDGGEEGMDIITHILALAPRLLKDSGSIFLEVDPRHPELVSSWLQSRPDLYLNLVAVRRDFCGRPRFLHIRRSGP,soluble
17,MGSDKIHHHHHHMTTLTFQSTTLSAIHQNNQIWLTVTEIGKALGYSDPFKSVKNIYDRHADEFTPQMTALIDMRTNGGIQKVRIFSLRGAHLIGMLSHTKVAKDFRRWVLDILDREAQQPKQLALPQPEKTYTVPLTEYRNCHLKTRVFLVHSTSYCPFLSNKKALTWRAWGWLGLFISLACICLDKIHRRE,not soluble
18,MSLNYVAEIDLLAEELAQELEIEGGETYGILAAHLRSLYGIHITRTEAAGGLIRHFDPAGKTLALSSYMAAPTRCFQLALQIAQLHAGATVDRVLAGAGFRNAEAAEICRIGLHNYFAAALILPYGQFHRAAQELRHDLELLAVRFGASLEQVAHRLSTLQRPGMKGVPIFFAKIDRAGNITKRHSATRLQFARFGAACPLWNIHQAFESSDRIVRQLAETPDGVRYLSIATQIEKAGAGFNTERPRYAIALGCEISHAQNFVYADTLDLGNAASFKPIGISCRVCERVDCVQRAVPPLKRKLHFDHLSRGALPYQIAEGHHHHHH,not soluble
19,MLFLPILILNLLIITHAIDIIPREVLFQDPKYSSVSLSPDAKQVGYVAPDENGIRNVFTRCSSCSYSRQVTFETEHPILNYVWTAIPDVILFTQDNHGDENTRIYKKNISATAIAADKTQRVVISEKPMVKAMILSNNLISETVLIGMNDENPALHNIYAFNCQTDELKLVLQNRRFSIFFFDNDLNVRLASEEGPDGEMIYYRPRSNEGARTTEQNTWVEYLRIQHDDKAITMPITFDKSNNFMYWIMGDGSDLGNLVVFPFEDPQQKEILYTAQRAQIGNVLIHPTDKTLLAVTEVYHKPELFVANETFMEDLQYLVNMKPSGSMNIVSMSIDMSTWLVTYSSSDEPYDIYLYRRWNKKAELFMSTRPELKKYTLNKQIGFDFRARDEMTIQAYLSLPPQAPLLKSSQVPDGDRPYANLGMIPAVPQKMIVLVHGGPKARDHYGFSPMNAWLTNRGYSVLQVNFRGSTGFGKRLTNAGNGEWGRKMHFDILDAVEFAVSKGIANRSEVAVMGGSYGGYETLVALTFTPQTFACGVDIVGPSNLISLVQAIPPYWLGFRKDLIKMVGADISDEEGRQSLQSRSPLFFADRVTKPIMIIQGANDPRVKQAESDQFVAALEKKHIPVTYLLYPDEGHGVRKPQNSMEQHGHIETFLQQCLGGETQPFQPGQYNSSAIIKKIGIEGAAIARQNLQIAQNQFAQQLPRGPVAPSIFYRPPVRAQRVMLAPNQNVMNRIFPVQG,soluble
